# “And” between values parts separate entries of the source, which are not always exact repeats. Equal entries are not always repeated.
# B1: BLP-38 (bispecific antibody, human IgG4 S228P, kappa)
# heavy: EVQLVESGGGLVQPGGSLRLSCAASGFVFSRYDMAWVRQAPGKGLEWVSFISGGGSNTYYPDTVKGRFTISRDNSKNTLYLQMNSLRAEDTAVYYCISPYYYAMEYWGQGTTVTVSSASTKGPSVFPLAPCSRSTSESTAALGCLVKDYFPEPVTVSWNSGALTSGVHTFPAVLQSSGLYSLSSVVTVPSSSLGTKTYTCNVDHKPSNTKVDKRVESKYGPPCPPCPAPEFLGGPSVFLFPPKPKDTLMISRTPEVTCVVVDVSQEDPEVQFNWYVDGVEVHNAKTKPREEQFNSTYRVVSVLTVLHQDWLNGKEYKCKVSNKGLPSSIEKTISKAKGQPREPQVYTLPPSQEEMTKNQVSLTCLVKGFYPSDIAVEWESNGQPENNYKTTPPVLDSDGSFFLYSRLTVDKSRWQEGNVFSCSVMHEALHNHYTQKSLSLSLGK
# light: EPKSSDKTHTSPPSPEVQLVESGGGLVQPGGSLRLSCAASGYTVSSYCMGWFRQAPGKGREGVSAIDSDGSVSYADSVKGRFTISKDNSKNTLYLQMNSLRAEDTAVYFCAADLCWVDQDQGEYNTWGQGTLVTVSSDIQMTQSPSSVSASVGDRVTITCKASQDVDTAVAWYQQKPGKAPKLLIYWASTRHTGVPSRFSGSGSGTDFTLTISSLQPEDFATYYCQQYSTFPWTFGGGTKVEIKRTVAAPSVFIFPPSDEQLKSGTASVVCLLNNFYPREAKVQWKVDNALQSGNSQESVTEQDSKDSTYSLSSTLTLSKADYEKHKVYACEVTHQGLSSPVTKSFNRGEC
# notes: also called PD-1 x LAG-3 BABP
# B2: BLP-15 (bispecific antibody, human IgG4 S228P, kappa)
# heavy: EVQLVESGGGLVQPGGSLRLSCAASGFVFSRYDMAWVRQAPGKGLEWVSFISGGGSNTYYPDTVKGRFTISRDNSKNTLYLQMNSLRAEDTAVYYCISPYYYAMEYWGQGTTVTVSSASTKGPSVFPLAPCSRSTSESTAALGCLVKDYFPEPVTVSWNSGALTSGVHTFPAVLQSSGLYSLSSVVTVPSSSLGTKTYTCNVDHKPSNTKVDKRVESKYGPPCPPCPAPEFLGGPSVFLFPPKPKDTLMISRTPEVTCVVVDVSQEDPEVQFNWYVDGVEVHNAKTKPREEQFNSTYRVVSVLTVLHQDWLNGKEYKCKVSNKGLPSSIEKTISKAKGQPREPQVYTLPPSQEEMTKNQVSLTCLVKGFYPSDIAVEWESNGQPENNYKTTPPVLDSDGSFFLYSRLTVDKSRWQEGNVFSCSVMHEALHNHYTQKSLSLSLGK
# light: EVQLVESGGGLVQPGGSLRLSCAASGYTVSSYCMGWFRQAPGKGREGVSAIDSDGSVSYADSVKGRFTISKDNSKNTLYLQMNSLRAEDTAVYFCAADLCWVDQDQGEYNTWGQGTLVTVSSEPKSSDKTHTSPPSPDIQMTQSPSSVSASVGDRVTITCKASQDVDTAVAWYQQKPGKAPKLLIYWASTRHTGVPSRFSGSGSGTDFTLTISSLQPEDFATYYCQQYSTFPWTFGGGTKVEIKRTVAAPSVFIFPPSDEQLKSGTASVVCLLNNFYPREAKVQWKVDNALQSGNSQESVTEQDSKDSTYSLSSTLTLSKADYEKHKVYACEVTHQGLSSPVTKSFNRGEC
# notes: also called PD-1 x LAG-3 BABP
# B3: PD1-BM-min (antibody, human IgG4 S228P, kappa, V domains shown)
# VH: EVQLVESGGGLVQPGGSLRLSCAASGFVFSRYDMAWVRQAPGKGLEWVSFISGGGSNTYYPDTVKGRFTISRDNSKNTLYLQMNSLRAEDTAVYYCISPYYYAMEYWGQGTTVTVSS
# VL: DIQMTQSPSSVSASVGDRVTITCKASQDVDTAVAWYQQKPGKAPKLLIYWASTRHTGVPSRFSGSGSGTDFTLTISSLQPEDFATYYCQQYSTFPWTFGGGTKVEIKR
# notes: Full-length anti-PD-1 antibody, parental element of the BLP constructs; also called PD-BM-min; anti-PD-1 full-length antibody
# B4: BLP-2 (bispecific antibody, human IgG4 S228P, kappa)
# heavy: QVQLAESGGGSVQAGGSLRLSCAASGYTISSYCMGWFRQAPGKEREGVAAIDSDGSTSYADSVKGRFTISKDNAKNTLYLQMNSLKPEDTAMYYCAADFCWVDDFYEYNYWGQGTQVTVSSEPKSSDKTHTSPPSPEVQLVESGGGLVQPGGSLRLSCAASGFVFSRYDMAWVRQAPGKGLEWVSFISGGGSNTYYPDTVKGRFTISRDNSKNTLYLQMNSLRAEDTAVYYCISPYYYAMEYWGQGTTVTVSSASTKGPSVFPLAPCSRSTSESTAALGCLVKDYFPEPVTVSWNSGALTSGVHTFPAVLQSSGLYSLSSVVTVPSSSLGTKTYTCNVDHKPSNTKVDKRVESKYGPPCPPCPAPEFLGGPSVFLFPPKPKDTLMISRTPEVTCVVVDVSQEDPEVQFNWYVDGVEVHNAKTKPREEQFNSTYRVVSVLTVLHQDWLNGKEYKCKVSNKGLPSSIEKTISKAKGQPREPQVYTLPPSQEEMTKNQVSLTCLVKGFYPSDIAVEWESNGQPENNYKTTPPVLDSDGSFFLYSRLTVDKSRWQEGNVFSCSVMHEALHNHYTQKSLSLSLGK
# light: DIQMTQSPSSVSASVGDRVTITCKASQDVDTAVAWYQQKPGKAPKLLIYWASTRHTGVPSRFSGSGSGTDFTLTISSLQPEDFATYYCQQYSTFPWTFGGGTKVEIKRTVAAPSVFIFPPSDEQLKSGTASVVCLLNNFYPREAKVQWKVDNALQSGNSQESVTEQDSKDSTYSLSSTLTLSKADYEKHKVYACEVTHQGLSSPVTKSFNRGEC
# notes: also called PD-1 x LAG-3 proof-of-concept BABP
# B5: BLP-4 (bispecific antibody, human IgG4 S228P, kappa)
# heavy: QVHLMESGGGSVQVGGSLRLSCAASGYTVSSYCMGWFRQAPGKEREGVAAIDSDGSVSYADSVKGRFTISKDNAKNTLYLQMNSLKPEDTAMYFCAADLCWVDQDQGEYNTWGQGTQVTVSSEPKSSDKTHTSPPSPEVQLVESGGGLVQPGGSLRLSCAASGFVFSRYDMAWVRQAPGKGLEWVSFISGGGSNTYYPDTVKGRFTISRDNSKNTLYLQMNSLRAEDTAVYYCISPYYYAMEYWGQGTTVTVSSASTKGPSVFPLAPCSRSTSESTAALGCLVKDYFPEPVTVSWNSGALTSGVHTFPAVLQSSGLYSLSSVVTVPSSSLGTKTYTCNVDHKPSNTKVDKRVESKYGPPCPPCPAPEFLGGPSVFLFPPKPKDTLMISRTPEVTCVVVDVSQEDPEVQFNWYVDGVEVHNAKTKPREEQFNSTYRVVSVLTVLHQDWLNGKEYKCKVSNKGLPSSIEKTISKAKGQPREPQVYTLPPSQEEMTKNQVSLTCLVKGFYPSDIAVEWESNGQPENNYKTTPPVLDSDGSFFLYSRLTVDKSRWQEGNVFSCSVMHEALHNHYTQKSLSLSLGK
# light: B4 light
# notes: as for B4
# B6: BLP-3 (bispecific antibody, human IgG4 S228P, kappa)
# heavy: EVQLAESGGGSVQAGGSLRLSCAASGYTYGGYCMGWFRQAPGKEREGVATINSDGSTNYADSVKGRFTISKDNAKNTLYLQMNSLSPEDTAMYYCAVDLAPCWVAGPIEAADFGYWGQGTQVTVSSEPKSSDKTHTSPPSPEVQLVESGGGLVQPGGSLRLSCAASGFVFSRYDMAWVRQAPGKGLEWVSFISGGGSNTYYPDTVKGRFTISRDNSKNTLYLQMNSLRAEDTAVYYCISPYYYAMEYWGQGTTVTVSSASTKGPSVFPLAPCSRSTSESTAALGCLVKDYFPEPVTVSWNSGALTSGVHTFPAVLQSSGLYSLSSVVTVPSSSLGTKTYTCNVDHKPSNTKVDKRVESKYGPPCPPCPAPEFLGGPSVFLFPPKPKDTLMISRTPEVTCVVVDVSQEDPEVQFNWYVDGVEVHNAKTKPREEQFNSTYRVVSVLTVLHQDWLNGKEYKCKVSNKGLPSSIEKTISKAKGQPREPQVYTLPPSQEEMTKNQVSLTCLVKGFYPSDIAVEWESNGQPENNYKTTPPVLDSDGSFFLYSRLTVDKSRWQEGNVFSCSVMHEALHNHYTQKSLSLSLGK
# light: B4 light
# notes: as for B4
# B7: Pembrolizumab (antibody, human IgG4 S228P, kappa, V domains shown)
# VH: QVQLVQSGVEVKKPGASVKVSCKASGYTFTNYYMYWVRQAPGQGLEWMGGINPSNGGTNFNEKFKNRVTLTTDSSTTTAYMELKSLQFDDTAVYYCARRDYRFDMGFDYWGQGTTVTVSS
# VL: EIVLTQSPATLSLSPGERATLSCRASKGVSTSGYSYLHWYQQKPGQAPRLLIYLASYLESGVPARFSGSGSGTDFTLTISSLEPEDFAVYYCQHSRDLPLTFGGGTKVEIKR
# Target: T1, PD-1 expressed on CHO cells (UniProt Q15116 25-288, limits assumed)
# T1 construct: whole, on cells; also called CHO-PD-1 cells
# T1 sequence (Q15116 25-288 limits assumed): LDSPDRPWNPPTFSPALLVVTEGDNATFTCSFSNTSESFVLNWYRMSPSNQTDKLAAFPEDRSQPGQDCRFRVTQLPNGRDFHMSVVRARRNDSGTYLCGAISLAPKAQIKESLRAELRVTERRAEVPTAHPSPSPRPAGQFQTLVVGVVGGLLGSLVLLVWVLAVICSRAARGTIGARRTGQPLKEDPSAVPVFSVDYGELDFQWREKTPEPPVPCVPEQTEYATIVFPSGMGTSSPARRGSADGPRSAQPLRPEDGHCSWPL
# Assay: flow cytometry competition; blocks PD-L1 binding to CHO-PD-1 cells; Experiment 2
row,EC50,Binder
1,12.4 nM,B1
2,18.5 nM,B2
3,9.56 nM,B3

# Target: T2, Human PD-1 (human, UniProt Q15116 25-167, limits assumed)
# T2 sequence (Q15116 25-167 limits assumed): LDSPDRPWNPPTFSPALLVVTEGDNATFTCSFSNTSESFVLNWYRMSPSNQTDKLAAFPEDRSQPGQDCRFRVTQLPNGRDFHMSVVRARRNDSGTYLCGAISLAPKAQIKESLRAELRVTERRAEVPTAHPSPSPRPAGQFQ
# Assay: SPR (Biacore T200), as in Example 3; Experiment 1
row,Kd,Binder
1,4.4 nM,B4
2,4.5 nM,B5
3,2 nM,B6
4,1.4 nM,B3

# Target: T1, PD-1 expressed on CHO cells
# Assay: flow cytometry on CHO cells expressing PD-1; Experiment 1
row,EC50,Binder
1,4.29 nM,B4
2,3.51 nM,B5
3,4.64 nM,B6
4,2.44 nM,B3

# Target: T2, Human PD-1
# Assay: SPR (Biacore T200), as in Example 3; Experiment 2
row,Kd,Binder
1,2.5 nM,B1
2,4.4 nM,B2
3,2.3 nM,B3

# Target: T1, PD-1 expressed on CHO cells
# Assay: flow cytometry competition; blocks PD-L1 binding to CHO-PD-1 cells; Experiment 1
row,EC50,Binder
1,3.2 nM,B4
2,2.58 nM,B5
3,4.38 nM,B6
4,1.72 nM,B3

# Target: PD-1 in the PD-1 cell based reporter assay
# Assay: cell-based or functional assay
row,PD-1 cell based reporter assay EC50,Binder
1,5.14 nM,B4
2,5.94 nM,B5
3,5.92 nM,B6
4,1.25 nM,B1
5,3.32 nM,B2
6,1.34 nM and 1.21 nM,B3
7,1.15 nM,B7

# Target: LAG-3 on Thaw-and-Use LAG-3 Effector cells
# Assay: cell-based or functional assay
row,LAG-3 blockade reporter assay EC50,Binder
1,2.04 nM,B4
2,1.85 nM,B5
3,1.45 nM,B6
4,3.83 nM,B1
5,5.12 nM,B2

# Target: T1, PD-1 expressed on CHO cells
# Assay: flow cytometry on CHO cells expressing PD-1; Experiment 2
row,EC50,Binder
1,8.51 nM,B1
2,13.7 nM,B2
3,6.27 nM,B3
